Experimental data as given in patent US20060099210.

Tests used:
[1] = tested on: GST-2E11 (fusion protein between GST and a KCNQ2-15b polypeptide comprising exons 13, 14 and 15b; encoded by pGEX-2TK-2E11)
[2] = tested on: GST (glutathione S-transferase expressed from the pGEX2TK plasmid; negative control) [GST: P08515]
Chain of GST (glutathione S-transferase expressed from the pGEX2TK plasmid; negative control) [GST: P08515] (P08515 whole entry): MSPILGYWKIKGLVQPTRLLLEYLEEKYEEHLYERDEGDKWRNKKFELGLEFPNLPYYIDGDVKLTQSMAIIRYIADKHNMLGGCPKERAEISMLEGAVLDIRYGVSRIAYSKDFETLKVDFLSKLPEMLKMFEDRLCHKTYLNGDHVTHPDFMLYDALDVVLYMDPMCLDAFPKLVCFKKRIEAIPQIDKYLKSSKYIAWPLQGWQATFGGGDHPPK

Chain of GST-2E11 (fusion protein between GST and a KCNQ2-15b polypeptide comprising exons 13, 14 and 15b; encoded by pGEX-2TK-2E11) (chain, as listed by the source): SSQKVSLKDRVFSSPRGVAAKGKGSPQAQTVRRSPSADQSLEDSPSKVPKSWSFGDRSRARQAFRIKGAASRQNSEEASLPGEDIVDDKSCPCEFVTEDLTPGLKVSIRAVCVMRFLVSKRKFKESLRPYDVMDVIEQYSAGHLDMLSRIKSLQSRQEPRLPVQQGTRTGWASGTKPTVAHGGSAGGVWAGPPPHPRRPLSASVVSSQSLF

Substance | in vitro phosphorylation with [32P]γATP, SDS-PAGE and autoradiography [1] | in vitro phosphorylation with [32P]γATP, SDS-PAGE and autoradiography (negative control with GST instead of GST-2E11) [2] | in vitro phosphorylation in the presence of 5 µg of CREB phosphopeptides as competitor [1]
Protein Kinase A Catalytic Subunit (PKA from bovine heart, Sigma) | a band located at a position corresponding to a protein of a size of about 45 kD did appear | No bands appeared in the three lines corresponding to the negative controls | 
recombinant GSK-3β kinase (New England Biolabs) | a band located at a position corresponding to a protein of a size of about 45 kD did appear | No bands appeared in the three lines corresponding to the negative controls | A band did still appear at a position corresponding to the size of GST-2E11, but the intensity of the band was very significantly lower
